In the nanobody polyreactivity screen of Harvey et al. (2022):

Experiment: yeast display, Sf9 membrane polyspecificity reagent, FACS + sequencing; frameworks hold sequencing errors
Method in brief: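 Synthetic nanobody libraries on Saccharomyces cerevisiae BJ5465 were galactose-induced for 36–48 hours, stained 1 hour at 4 °C with 10% biotinylated, detergent-solubilized Sf9 membrane reagent and enriched on streptavidin microbeads. FACS then separated cells into low and high (top ~1%) gates by anti-HA (expression) and streptavidin (reagent binding) fluorescence. Genes were colony-PCR amplified, MiSeq 2 × 250 sequenced and CDR-length filtered. A clone's polyreactivity label is that of its gate of origin.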

Sequence: QVQLVESGGGLVQAGGTLRLSGDASGSTFPANAMGWYRQAPGKERELVAAISYRGGSTYYADSVKGRFTISRDNAKNTVYLQMNSLKPEDTAVYYCAATPWYRTRTYDYWGQGTQVTVSS
- polyreactivity (PSR sort gate): high polyreactivity

Sequence: QVQLVESGGGLVQAGGSIRLSCAASGRTFIYNVMGWYRQAPGKERELVAAISSGGNTNYADSVKGRFTISRDNAKNTVYLQMNSLKPEDPAVYYCNARWPLGVSRGGMGYWGQGTQVTVSS
- polyreactivity (PSR sort gate): high polyreactivity

Sequence: QVQLVESGGGLVQAGGSLRLSCAASGIIFPRNAMGWYRQAPWKERELVAGISRSGGSTSYADSVKGRFTFSRDNAKNTVYLQMNSLKPEDTAVFYCASRGHPFKKSYGSWGQGTQVTVSS
- polyreactivity (PSR sort gate): high polyreactivity

Sequence: QVQLVESGGGLVQAGGSLRLSCAASGSTFFYNAMGWYRQAPGKERELVAGITSGGSTYYADSVKGRFTISRDNAKNTVYLQMNSLKPEDTAVYYCAVDVPPWDYDYWGQGTQVTVSS
- polyreactivity (PSR sort gate): low polyreactivity

Sequence: QVQRVESGGGLVQAGGSLRLSCAASGSIFPIYAMGWYRQAPGKERELVAGITWSGGSTYYADSVKGRFTISRDNAKNTVYLQMNSLKPEDTAVYYCAAERWHPYDYWGQGTQVTVSS
- polyreactivity (PSR sort gate): low polyreactivity

Sequence: QVQRVESGGGLVQAGGSLRLSCAASGFTFSLYGMGWYRPARGKGRELVAAIRSGGSTNYADSVKGRYTISRDNAKNTVYLQMNSLKPEDTAVYYCATDIHSGHNNRDKHDYDYWGQGTQETVSS
- polyreactivity (PSR sort gate): low polyreactivity

Sequence: QVQLVESGGGLVQAGGSHRLSCAASGLTFDHYAMGWYRQAPGKERELVAAISRTGTRTYYADSVKERFTISRDNAKNTVYLQMNSLKPEDTAVYYCNAGTYWQGDSYDYWGQGTQVTVSS
- polyreactivity (PSR sort gate): low polyreactivity

Sequence: QVQLVESGGGLVQAGGSLRLSCAASGRTYPYYAMGWYRQAPGKEREVVAAITYRGGSTSYADSVKGRFTISRDNAKNTVDLQMNSLKPEDTAVYYCAARTWNRRSPYDYWGQGTQVTVSS
- polyreactivity (PSR sort gate): high polyreactivity

Sequence: QVHLVESGGGLVQAGGSLRLSCAASGFTFYRTAMGWYRQPPGKERELVAAITRGASTYYADSVKGRFTISRDNAKNNVYLQMNSLKPEDTAVYYCAADRYYYRGRYYGYTREFDYWGQGTQVTVSS
- polyreactivity (PSR sort gate): high polyreactivity

Sequence: QVQLVESGGGLVQAGGSLRLSCAASGSIFYDNAMGWYRPAPGKERELVATIRGGGNTYYADSVKGRFTISRDNAKNTVYLQMNSLKPEDTAVYYCSKQSDFPGVPLVYGVYGYDYWGQGTQVTVSS
- polyreactivity (PSR sort gate): low polyreactivity

Sequence: QVQLVESGGGLVQAGGSLRLSCAASGSIFITYAMGWYRQAPGKERELVAAIRDSGDRTYYADSVKGRFTISRDNEKNTVYLQMNSLKPEDTAVYYCNARWQEPLKYDYWGQGTQVTVSS
- polyreactivity (PSR sort gate): low polyreactivity

Sequence: QVQLVESGGGLVQAGGSLRLSCAASGITFSDYAMGWYRQAPGKEWELVAAISARGGSTYYADSVKGRFTISRDNAKNTVYLQMNSLKPEDTAVYYCAADKRTPYYSRAGMDYWGQGTQVTVSS
- polyreactivity (PSR sort gate): low polyreactivity

Sequence: QVQLVESGGGLVQAGGSLSLSCAASGSILAVNAMGWYRQAPGKERELVAAISSRGGSTSYADSVKGRFTISRDNAKNTVYLQMNSLKPEDTAVYYCAVRAVRRLRTSVPVRFYYWGQGTQVTVSS
- polyreactivity (PSR sort gate): high polyreactivity

Sequence: QVQLVESGGGLVQAGVSLRLSCAASGLIFWAYAMGWYRQAPGKERELVAAINSGGRTYYADSVKGRFTISRDNAKNTVYLQMNSLKPEDTAVYYCAAAGVYSSDYWGQCTQVTVSS
- polyreactivity (PSR sort gate): low polyreactivity

Sequence: QVQLVESGAGLVQAGGSLRLSCAASGRTFVYNAMGWYRQAPGKERELVAAISSDGASTYYADSVKGRFTISRDNAKNTVYLQMNRLNPEDTAVYYCAADFSYYSYEHYYWGQATQVTVSS
- polyreactivity (PSR sort gate): low polyreactivity

Sequence: QVQLVESGGGLVQAGGSLRLSCAASGRIFRGNAMGWYRQAPGKERELVAAISWGGGSTYYAYSVKGRFTISRDNAKNTVYLQMNSLKPEDTAVYYWNKEYVFWRFPNWYTYGYWGQGTQVTLSS
- polyreactivity (PSR sort gate): high polyreactivity

Sequence: QVQLVESGGGLVQAGGSLRLSCAASGITFTFNAMGWYRQAPGKERELVAAITWSGGSTFYADSVKGRFTFSRDNAKNTVYLQMNSLKPEDTAVYYCARDTELYVRWLDYWVQGTQVTVSS
- polyreactivity (PSR sort gate): low polyreactivity

Sequence: QVQLVESGGGLVQAGGSLRLSCAASGRIFPSYAMGWYRQAPGKERELVAAISYSGASTYYADSVKGRFTFSRDNAKNTVYLQMNSLKPEDTAVYYCNAESGPKYYWGYAGTFDYWGQGTQVTVSS
- polyreactivity (PSR sort gate): low polyreactivity

Sequence: QVQLVESGGGLVQAGGSLRLSSPASGRIFITNAMGWYRQAPGKERELVASITVSGDSTYYADSVKGRFTISRDNAKNPVYLQMNSLKPEDTAVYYCAADYYALDKVLGNNYWGQGTQVTVSS
- polyreactivity (PSR sort gate): low polyreactivity

Sequence: QVQLVESGGGLVQAGGSLRLSCAASGFTFYYNAMGWYRQAPGKERELVASITRSGGRTYYADSVKGRFTISRDNAMNTVYLKMNSLKPEDTAVYYCARRYPRGYYWGQGTQVTVSS
- polyreactivity (PSR sort gate): high polyreactivity

Sequence: KVQLVESGAGLVQAGGSLRFSCAASGSIFIVYAMGWYRPAPGKERELVADITNGGDTNYADSVKGRFTISRDNAKNTVYLQMNSLKPEDTAVYYCAKYLWSYRVRTNVWRSYYWGQGTQVSVSS
- polyreactivity (PSR sort gate): high polyreactivity

Sequence: QVQLVESGGGLVQAGGRLRLSCAASGRTFKLYAMGWYRQAPRKERELVAAITESGGSTYYADTVKGRFTISRDNAKNTVYLQMNILKPEDTAVDYCARVLQYQKRNDYEYWGQGTQVTVSS
- polyreactivity (PSR sort gate): low polyreactivity
